Molecular target: CNOT1 (UniProt A5YKK6)
Assay: co-IP with FLAG-tagged YTHDF2
Conditions: reference: wild type; sites S39

- binding against the reference: weaker
Substance: YTHDF2 (from UniProt Q9Y5A9) S39A
